Test results published in the DeepSol protein solubility set.

Assay: soluble on expression in E. coli; label from the status in PepcDB or PDB records

Sequence	soluble on expression in E. coli
MSGNRGGSYISGIVPSFKERRPFHERQKDVEEIRSQQPNKVPVIIERFDGERSLPLMDRCKFLVPEHITVAELMSIVRRRLQLHPQQAFFLLVNERSMVSNSMSMSNLYSQERDPDGFVYMVYTSQPAFG	not soluble
MSGNYVINIGRQLGSGGKEIGEKLAARLGIDFYDKELINLASEESGLCKEFFEKADEKASQGIIGGLFGMRFPFISEGAMPCTNCLSNDALFKVQSDVIRRLAAEKSCVFVGRCADYILREHPRCANVFISATKEDRIARLCQMHRIDEEAAEEMIEKADKRRSEYYNYYSYKTWGAAATYHLCVDSSSLGIEETVRFVEEFVAKKLQIGM	not soluble
MSGPTDTSTQPQGFSMTRLRLIGSAVLLSLSSMAMADSASQAEQFLKLVHADKLTVPVYAQVQQMLAQRFAQAKAPESKKAVLERYQAKANAELDRAIGWDKIKPELIKLYTTNFTESELKDLNAFYQSPLGKKVLEKMPRLTAESAQLTQAKLQGAVEPVNKLMADMDKELGVAAPAQKKK	not soluble
MSGRVGDLSPRQKEALAKFRENVQDVLPALPNPDDYFLLRWLRARSFDLQKSEAMLRKHVEFRKQKDIDNIISWQPPEVIQQYLSGGMCGYDLDGCPVWYDIIGPLDAKGLLFSASKQDLLRTKMRECELLLQECAHQTTKLGRKVETITIIYDCEGLGLKHLWKPAVEAYGEFLCMFEENYPETLKRLFVVKAPKLFPVAYNLIKPFLSEDTRKKIMVLGANWKEVLLKHISPDQVPVEYGGTMTDPDGNPKCKSKINYGGDIPRKYYVRDQVKQQYEHSVQISRGSSHQVEYEILFPGCVLRWQFMSDGADVGFGIFLKTKMGERQRAGEMTEVLPNQRYNSHLVPEDGTLTCSDPGIYVLRFDNTYSFIHAKKVNFTVEVLLPDKASEEKMKQLGAGTPK	soluble
MSGTEEAILGGRDSHPAAGGGSVLCFGQCQYTAEEYQAIQKALRQRLGPEYISSRMAGGGQKVCYIEGHRVINLANEMFGYNGWAHSITQQNVDFVDLNNGKFYVGVCAFVRVQLKDGSYHEDVGYGVSEGLKSKALSLEKARKEAVTDGLKRALRSFGNALGNCILDKDYLRSLNKLPRQLPLEVDLTKAKRQDLEPSVEEARYNSCRPNM	soluble
MSHAHKKHKENAPKSLNFYVITISTSRYEKLLKKEPIVDESGDIIKQLLIENGHKIIGYSLVPDDKIKILKAFTDALSIDEVDVIISTGGTGYSPTDITVETIRKLFDREIEGFSDVFRLVSFNDPEVKAAAYLTKASAGIIGKKIVYLLPGSPDAVKLALKELILPEVGHLVYLVRS	soluble
MSHLNYETRLPLGQATIDHFMGLPAHPTKCQATYVWIDGTGEHLRAKTRTINTKPQYLSEYPIWNYDGSSTGQADGLNSDRYLRPVAVFPDPFLGGLNVLVMCDTLDHEMKPTATNHRQMCAELMKKVSDQQPWFGMEQEYLIVDRDEHPLGWPKHGYPAPQGKYYCGIGADRAFGREVVETHYRACLHAGITIFGSNAEVTPGQWEFQIGTCLGIEMGDQLWMARYILHRVAEQFGVCVSLDPKPRVTMGDWNGAGCHTNFSTIDMRRPDGLETIIAAMEGLKKTHSEAMKVYDPNGGHDNLRRLTGRHETSQADQFSWGIANRACSVRIPRQVADEGRGYLEDRRPSSNCDPYLVTAMIVKSVLIN	not soluble
MSHLVYVSRVVAAPIERVWPHLRDFNGLSAWHPGVADSRLEEGGRDDAPGTVRFLSLNPSGYVRERLLMLDDAGRSLRYAIIETDLPMRDYVAGVDLCPVTEGGGTFAQWWADFDVVAGANRDEVARLVGEGVFAAGLQALDQYLRDRQG	soluble
MSHPVVSKEEWLAARRDLLVKEKELTRARDRLNEARRALPWEEVTKDYIFDAPSGPRSLQELFGDCSQLIVYHFMLAPDWEEGCVGCSFFADHVDGALVHLRHGDAGFVAVSRAPLEKIEGYKNRMGWKFPWVSAEGSDFNYDYQASFRDEDVEKGEITYNYRDMAPFGDLKDLHGISVFAKGEDGKIYHTYSTYARGAEQTLGTLMLLDLVPKGRNEDEVMDWVRRHDQYEDAPKAASCCH	not soluble
MSHYLSPGAYLPHDAPMLLLEDVVSVSDDSAVCRVTVSPSGVLAPFLDPDGNLPGWFTLELMAQTVGVWSGWHRHQQGKNSIELGMILGARELLCTTGILPAGQTLTITVKLLMQDDRFGSFECSINDGEATGRINTFQPTAEELTTLFQQGAS	not soluble
MSIALLAAATSSMAQSLDKMNWLNEPQQWEIKEGKALVMDVPAKTDFWRISHYGFTVDDGPFYYATYGGEFEVKVKITGNYVTTFDQMGLMLRIDHENWIKAGVEYVDGKQNVSAVVTHRTSDWSVVQLPDAPRSLWIKAVRRLDAVEIFFSRDDKEYTMIRTCWLQDNCPVMVGLMGACPDGKGFTATFEEFKVTPLADQRRLEWAKKQADKLEHHHHHH	not soluble
MSIESIRNVIAKDMGEVDNVIQQKLHSQVALVRQVSEYIIHSGGKRLRPALVILAAGLFDYKGLHHHNLAAVVEFIHTATLLHDDVVDESELRRNQATANALFGNAASVLVGDFLYSRAFQMMVEVGNMRVMEVLADATNTIAEGEVLQLLNCRDPDVEEENYLQVIRFKTAKLFEAAARLGAILGGATPAEEEALAAYGMHLGTAFQLVDDLLDYSGNDQDTGKNLGDDLAEGKPTLPLIFAMRSGIPEQVDTVRHAIETGGKDGFEPILKIIQESGALDYAKQCAQNEANMAISAITAIRDSIYKQCLLELAEFAITRNY	not soluble
MSIFQSFKSVAAAIAVCAGIFTGFSANAQSVDDIVKRGSVKIGVLVGAPPFGSVDAQGNPVGYDADVATLIGKYLGVPVTMVQLTPPSRIPALESGKVDFLVATLAPTPERAKAVMFTNPYSAFQVGIYSHKDTKIEKWEDLKGMTVGVNRGSSVEREFVNREKELGLTILRFDDDATTMQALFSGQVQAIAGPDAQANAAIKLRGDTTTEVKFFFSIQPNSMTVRKDAVDLHQWLNNTIYYIKQNGELDAIARKWVGTPLPVLPTF	not soluble
MSIGVVLAKITAEFPDVTVSKIRYLESEGLITPQRTSTGYRRFTQDDVERLRYILVTQRDNYLPLKVIREQLEAMDSGAVTPISRGSDNAPLISPESFRTSVVTRLSDSDVAARAQVSESEVSELAEAGLIRPDSSGFFTADDVQVVSVAVQLKEFGFDVRHLKSLRNLASRHADLISRATTPVARSQSESARQRAEEMSQQLSALVVSLNATMLRSMLRDELNR	not soluble
MSIINDENGRGYKVHLCKTNIAQNNNKFYDMELLDEGGDFIVKLINGRIGYRGVTQLKDFDDLDRAKKFFESKFYEKTHLHWEERDDEPVPNKYAVVELATNARQTEKEVKKEEPEPEPKVDEKNTRGRKKRGIVKEKKEIKKEEEPVEEVNEKLKELMKCICDEDVHLGLLKQLKFNEAFGRPIDCLSLAQLTTGYEILSKIEESIGGKSARRSTRGRPRVADRVLAVKSDGPSLHDINKYYSLIPHSFGFCVPPKIDSHAKIQAERELLDALKGSIEASLELKDLKKTASSKDIYQRLYERLPCHLEPVSEEIAGKIGDCLAMRGPTHCYKLSLIDAFELKDPNEIPTEAPVEVQEVPKKRGRKSTKTAAPTVPPPTTKRLLWHGTRVTNVFSILMNGLQFPVGDRCGLMFGNGVYFANVPTKSANYCCPEASKRVFMLLCEVETANPLVLYESEIDADEKMEKAKKTSVYAAGKHTPRDTVEINGIPAFKSNLETIEEETRLLYDEYVMFNKEHFKIKYVVEVKVDRLTAKEMMA	not soluble
MSILHTVNKSPFERNSLESCLKFATEGASVLLFEDGIYAALAGTRVESQVTEALGKLKLYVLGPDLKARGFSDERVIPGISVVDYAGFVDLTTECDTVQAWL	soluble
MSILKNAGEPVISMRYIPYNGGAVKETWWDRDSDRKRLLISLGTVKPMVDGLELISWVMDSANEVDADIILQLAINARTGLRKLPSNVRLVDWIPMGVFLNGADGFIHHGGAGNTLTALYSGIPQIVFGEGADRSVNAEIVAKRGCGIIPDKHGLTSDLVNRLLYDDSLRFCSDQVAAEMAEQPSPAEIAEVLMRKLKNNGKQL	not soluble
MSINNTQNNCRFCSEISQANGEDPIGTAIAVEQYLIIEAAQPWPIPIWIEPDPMPQGVIEALNFIWEGGGTVRQLAIAPDKEYSHPGYTRVIYYRRPAKFFAQFEKQEFIVPHALLGSLALALLKNPEELPNFNQYRQQTNHIREILVCNHGNVDAACSRFGYPIYQKLRSEYAAATNSNLRFWRCSHFGGHEFAPTLVDLPQGQYWGHLKPEILDLLVLRNGSVKELYPYYRGWGGLSFFEQIAEREIWMLEGWKWLEYHKAGQVLASDEINQEWADVRIDFTTVDGNISSAYQARVEVKGSVMTAWKSGANPTLEEVKQYRVRNLVKLAL	not soluble
MSIRRSDPLAQVSDFDIRLLRIFKSVVEAGGFSAAESALGIGRSAISQQMSDLEQRLGLRLCQRGRAGFSLTDEGREVYQSSLQLLSALESFRTEVNGLHQNLRGELNIGLTDNLVTLPHMRITHALSRLKERGPGVHINIRMIAPAEVEQGVLDGGLHVGVVPQASALPGLEYHSLYSERSLLYCAVGHPLFYAENTMLDDQRLALQEAVAPTFRLPNDIQEHYKALTCTASASDREGIAFLILTGRYIGYLPDHYANAWVQEGRLRALKPDAKFYDLNLVTVTRKGRRPHLVLEGFLEALAATR	not soluble
MSISIMTETRPESAEQQHHEVLQRPSDEPCSGCKQLQKDVAKTISMVMERMDKLQYRLDELLKENNELKSSSVSSGKASPSPAESRSSPKLVETVVAPVSGARKRKPKERSPPAAASPLPDFSNLMNGFMFDPLNMSNPNGMMQLLSMVQQQQQQQQHHQHIENQQSVSPPQSKSVKIEDPMDQDVKQEESERSDIPTATEAQNLLDALTAQFSSNGQATSTTSPPSSSSQVQAVIEAVATPSSQSQDSSMFEKTETSGDPNAARCSNCRTDKTTAWRRDAEGKLVCNPCGLYYRLHKVRRPIEMRKNHIQQRYRRKNKEKESSAATQIFNQLLTQMPTMATGGVSTDGAINTFNLLEQISQFTQAQELMNSSATF	not soluble
MSITIFNRDLKEIYYEKQYKNGQLKFLYNTILGRMLLKLFISTRLFSKINAIFNNNKGSIKKIEPFINEYKIDMSEYEKKEYTSFDDFFTRKILEGKRSFSKEKSHLISPADSKLMVYEIDDDLKMNIKNSIYTVGELLNDEKLSREYKNGTCLIFRLTVDDYHRYCFIDDGSLKYRKVINGRLHTVGPISSKRYKVYSENNREYSVLKTRNFGKVIQIEVGALLVGKIKNHSIKVFKKGDEKGYFCFGGSTIVLLFKEKVIKMDEDILEYSKAGIETKIKMGEKIGETNDLEHHHHHH	soluble
MSIVAKSYEESADPVVAYCAEHTAVQTPLQAELQKETLTNAPHSGMLGAPEVLTFGENFIKFLGAKRVLDVGTFTGASALAWALAVPDDGEVFTFDIDHANYRKFGVPILSKCEKTFKKIKPVEGPGVESLDKLIADGQSGTFDFAFIDADKANYSNYYEKCVSLLRKGGVIFVDNSLWDGAVCDPAKRTDPRTAAIHEMNDKIYQDDRTYSALLNLGDGIHMAFKK	not soluble
